Measured values from US7214663B2, “Tripeptide prodrug compounds” (Medarex, Inc., priority 2001, dated 2007).
Like-named read-outs stand apart in the source and are kept apart here.

How the values were obtained:
normal ICR mice = test: Single dose Maximum Tolerated Dose (SD-MTD) study, 49 days, ICR mice (Examples 5 and 6)
Method: In a second single dose Maximum Tolerated Dose (SD-MTD) study, groups of five normal ICR mice were administered intravenous bolus doses of Suc-Leu-Ala-Leu-Dox. The mice were observed daily for 49 days and body weights measured twice weekly.
In a second single dose Maximum Tolerated Dose (SD-MTD) study, groups of five normal ICR mice were administered intravenous bolus doses of Suc-Leu-Ala-Gly-Dox. The mice were observed daily for 49 days and body weights measured twice weekly.

[1] = mouse, in vivo, intravenous
[2] = test system: healthy young female normal mice
[3] = test system: human colon carcinoma (LS174T); test: LS174T xenograft efficacy study
Method: Healthy young female nude mice were subcutaneously implanted with chunks of LS174T. […] Tumor size and body weights were measured twice weekly for up to 60 days.

Namalwa cells (CD10pos) = test: cells; assay type: cell-based, human; conditions: 24 hours, 3H-thymidine
Method: In addition to LNCaP, a number of B-cell lines, such as Ramos and Namalwa cells express CD10 (CD10^pos cells).
Suspension cells, BALL-1, Ramos and Namalwa cells were cultured in RPMI media containing 10% heat inactivated fetal calf serum (FCS). On the day of the study, the cells were collected, washed and resuspended at a concentration of 0.5×10^6 cells/ml in RPMI containing 10% FCS. 100 μl of cell suspension was added to 96 well plates. […] Finally 10 μl of a 100 μCi/ml ^3H-thymidine was added per well and the plates were incubated for 24 hours. The plates were harvested using a 96 well Harvester (Packard Instruments) and counted on a Packard Top Count counter. Four parameter logistic curves were fitted to the ^3H-thymidine incorporation as a function of drug molarity using Prism software to determine IC50 values.

[4] = test system: PC-3 (prostate carcinoma) cells; conditions: PC-3, 48 hours, 3H-thymidine incorporation
Method: (§1) Adherent cells, LNCaP (prostate carcinoma), HT-29 (colon carcinoma) and PC-3 (prostate carcinoma), were cultured in DMEM media containing 10% heat inactivated fetal calf serum (FCS). On the day of the study the cells were detached from the plate with a trypsin solution. The collected cells were washed and resuspended at a concentration of 0.25×10^6 cells/ml in DMEM containing 10% FCS. 100 μl of cell suspension were added to 96 well plates and the plates were incubated for 3 hours to allow the cells to adhere. […] The plates were then incubated for 24 hours, pulsed with 10 μl of a 100 μCi/ml ^3H-thymidine and incubated for an additional 24 hours (total incubation time 48 hours). The plates were harvested using a 96 well Harvester (Packard Instruments) and counted on a Packard Top Count Counter. Four parameter logistic curves were fitted to the ^3H-thymidine incorporation as a function of drug molarity using Prism software to determine IC50 values.
(§2) Prostate carcinoma cells, LNCaP and PC-3 cells or colon carcinoma cells HT-29, were incubated with increasing concentration of the indicated compounds for 48 hours and cellular proliferation was measured using the ^3H-thymidine assay.

[5] = test system: LNCaP (prostate carcinoma) cells; conditions: 48 hours, 3H-thymidine incorporation
Method: as §1, §2

[6] = test system: HT-29 (colon carcinoma) cells; conditions: HT29, 48 hours, 3H-thymidine incorporation
Method: as §1, §2

[7] = Metabolism and clearance of Suc-Leu-Ala-Leu-Dox in mice (plasma, urine); assay type: in vivo, mouse; conditions: after single intravenous 117 mg/kg Suc-Leu-Ala-Leu-Dox
Method: Plasma samples of 100 μl were transferred to microcentrifuge tubes (1.5 mL) and an internal standard of daunorubicin (20 μL at 0.5 mg/ml) was added together with acetonitrile (400 μl). The tubes were capped and briefly vortexed followed by centrifugation at 14,000 rpm. 420 μl from each tube was removed and dried in vacuo. Each sample was reconstituted in 65 μl 20 mM aqueous ammonium formate (AF) pH 4.5 buffer containing acetonitrile (20%) prior to analysis by reverse phase liquid chromatography in combination with tandem mass spectrometry (LC MS/MS).
Urine was collected at 2 and 24 hours post administration from pairs of mice in metabolic cages. Urine samples were diluted with AF buffer containing acetonitrile (20%) to give a target analyte concentration within the practical range of the LC MS/MS assay. 30 μl of each diluted sample was placed in a micro centrifuge tube (1.5 ml) and an internal standard of daunorubicin (20 μL at 0.5 mg/ml) was added together with 50 μl of AF buffer containing acetonitrile (20%). Each sample was then analyzed by LC MS/MS.
An Agilent HP1100 HPLC with DAD detector and Chemstation software was coupled to a PE Sciex API 365 mass spectrometer with an electrospray ion source. HPLC was performed on a TSK-Gel Super ODS, […], 4.6×50 mm (TosoHaas) reversed phase column equipped with a […] C18 guard disc (Higgins Analytical) and stainless steel frit (Upchurch Scientific). Chromatography was performed at room temperature. The flow rate was 0.5 ml/min. Injection volume was 50 μl. Gradient elution was performed using a mobile phase of AF buffer with increasing amounts of acetonitrile. The API 365 was operated at 365° C. in a multiple reaction monitoring mode, set to monitor specific analyte parent-daughter ion pairs. Integration of chromatograms was performed by MacQuan software (PE Sciex) and quantitation of each analyte obtained by comparison to previously obtained calibration curves. Daunorubicin was used as an internal standard in all cases.

[8] = first experiment, as first stated
[9] = recalculation (about 47% active compound)

## COc1cccc2c1C(=O)c1c(O)c3c(c(O)c1C2=O)C[C@@](O)(C(=O)CO)C[C@@H]3O[C@H]1C[C@H](NC(=O)[C@H](CC(C)C)NC(=O)[C@H](C)NC(=O)[C@H](CC(C)C)NC(=O)CCC(=O)O)[C@H](O)[C@H](C)O1 [Suc-Leu-Ala-Leu-Dox]
Normal ICR mice; any dose level
  acute toxicity, within 24 hours: no acute toxicity
Normal ICR mice; doxorubicin equivalent, intravenous bolus, ICR mice, Day 49
  SD-MTD (mg/kg Dox =): 42 mg/kg Dox =
Normal ICR mice; single intravenous bolus, 49 days
  dose groups with toxicity (partial hind-end paralysis, body weight loss >20%): ≥ 94 mg/kg
[1]
  MTD at 28 day: ~59 mg/kg
[2]; [8]
  equivalent dose of doxorubicin safely administered: 66 mg/kg
  fold higher than possible with doxorubicin alone: approximately 8 fold
[2]; intravenous 23-117 mg/kg
  mortalities over the 28-day study: no mortalities
[2]; intravenous, mice, 28-day study, first experiment, doses as first stated
  single-dose MTD: greater than 117 mg/kg
[2]; [9]
  equivalent dose of doxorubicin safely administered: 70 mg/kg
  fold higher than possible with doxorubicin alone: approximately 3.3 fold
[2]; repeated experiment
  single dose MTD, fold higher than doxorubicin alone: at least 1.2 fold
[3]; 52 mg/kg every 5 days for 5 doses
  Mean Day of Survival: 20 days
[3]; 63 mg/kg every 5 days for 5 doses
  Mean Day of Survival: 32 days
[3]; doxorubicin-insensitive model
  anti-tumor activity in LS174T xenograft: decreased the rate of tumor growth considerably
Namalwa cells (CD10pos)
  IC50: 2.27 µM
[4]
  IC50: 50 µM
[5]
  IC50: ~1 µM
[6]
  IC50: 36 µM
[7]
  Plasma 1 hr, percent of administered dose: 1.49%
  Urine 2 hr, percent of administered dose: 9.31%
  Urine 24 hr, percent of administered dose: 2.11%
[7]; female, mouse, in vivo, read-out: Urine 2 hr, percent of administered dose
  dose excreted at 2 h: 9.31%
